From paper PMC9481612, “Molecular architecture of the augmin complex” (Nature Communications, 2022)

T1: HAUS6 N-terminal region (a.a. 1–432) (human, UniProt Q7Z4H7 1-432)
T1 construct: HAUS6, human, N-terminal region a.a; 1-432 (C-terminal region H6C, a.a. 433-955, deleted); also called H6N; H6 in augmin^ΔH6C; source: High5 insect cells, co-infected with baculoviruses; purified as part of the augmin^ΔH6C octamer (StrepII-Trap, Superose 6)
T1 sequence (looked up): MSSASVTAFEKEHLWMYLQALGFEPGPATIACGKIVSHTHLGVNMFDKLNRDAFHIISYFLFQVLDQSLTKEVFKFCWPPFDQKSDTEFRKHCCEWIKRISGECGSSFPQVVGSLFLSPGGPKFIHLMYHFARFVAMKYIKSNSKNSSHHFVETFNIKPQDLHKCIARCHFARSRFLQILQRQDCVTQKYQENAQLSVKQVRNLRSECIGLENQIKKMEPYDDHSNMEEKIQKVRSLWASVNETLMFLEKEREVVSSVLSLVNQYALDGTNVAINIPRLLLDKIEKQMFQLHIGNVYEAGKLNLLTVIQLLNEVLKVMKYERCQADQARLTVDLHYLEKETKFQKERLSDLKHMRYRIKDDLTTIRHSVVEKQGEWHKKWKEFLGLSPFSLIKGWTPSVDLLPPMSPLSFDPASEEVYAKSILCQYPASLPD

T2: HAUS5 (human, UniProt O94927 1-633)
T2 construct: HAUS5, human; 633; also called H5; source: High5 insect cells, co-infected with baculoviruses; purified as part of the augmin octamer (StrepII-Trap, Superose 6)
T2 sequence (looked up): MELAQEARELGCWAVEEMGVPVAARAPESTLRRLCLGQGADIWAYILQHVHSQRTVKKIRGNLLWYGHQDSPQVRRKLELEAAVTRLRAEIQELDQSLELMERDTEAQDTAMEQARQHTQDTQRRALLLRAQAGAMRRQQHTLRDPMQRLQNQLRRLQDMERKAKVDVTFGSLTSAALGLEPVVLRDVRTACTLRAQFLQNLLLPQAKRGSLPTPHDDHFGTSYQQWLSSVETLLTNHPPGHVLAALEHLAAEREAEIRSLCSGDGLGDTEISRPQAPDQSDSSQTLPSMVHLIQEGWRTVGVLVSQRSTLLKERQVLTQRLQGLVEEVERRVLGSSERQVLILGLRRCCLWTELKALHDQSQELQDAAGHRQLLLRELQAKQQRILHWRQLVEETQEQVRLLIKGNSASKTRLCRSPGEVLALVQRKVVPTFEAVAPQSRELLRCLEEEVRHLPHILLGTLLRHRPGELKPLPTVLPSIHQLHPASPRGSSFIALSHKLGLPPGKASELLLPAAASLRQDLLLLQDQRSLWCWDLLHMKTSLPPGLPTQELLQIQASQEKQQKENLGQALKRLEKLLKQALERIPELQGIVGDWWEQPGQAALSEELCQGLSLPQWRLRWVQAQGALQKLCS

B1: HAUS8 (natural protein, human, UniProt Q9BT25 1-410, looked up)
chain: MADSSGRGAGKPATGPTNSSSAKKKDKRVQGGRVIESRYLQYEKKTTQKAPAGDGSQTRGKMSEGGRKSSLLQKSKADSSGVGKGDLQSTLLEGHGTAPPDLDLSAINDKSIVKKTPQLAKTISKKPESTSFSAPRKKSPDLSEAMEMMESQTLLLTLLSVKMENNLAEFERRAEKNLLIMCKEKEKLQKKAHELKRRLLLSQRKRELADVLDAQIEMLSPFEAVATRFKEQYRTFATALDTTRHELPVRSIHLEGDGQQLLDALQHELVTTQRLLGELDVGDSEENVQVLDLLSELKDVTAKKDLELRRSFAQVLELSAEASKEAALANQEVWEETQGMAPPSRWYFNQDSACRESGGAPKNTPLSEDDNPGASSAPAQATFISPSEDFSSSSQAEVPPSLSRSGRDLS
notes: HAUS8, human; 410; a.a; 1-138 and 340-410 are not seen in the cryo-EM map; also called H8; source: High5 insect cells, co-infected with baculoviruses; purified as part of the augmin octamer (StrepII-Trap, Superose 6)
B2: HAUS3 (natural protein, human, UniProt Q68CZ6 1-603, looked up)
chain: MSCGNEFVETLKKIGYPKADNLNGEDFDWLFEGVEDESFLKWFCGNVNEQNVLSERELEAFSILQKSGKPILEGAALDEALKTCKTSDLKTPRLDDKELEKLEDEVQTLLKLKNLKIQRRNKCQLMASVTSHKSLRLNAKEEEATKKLKQSQGILNAMITKISNELQALTDEVTQLMMFFRHSNLGQGTNPLVFLSQFSLEKYLSQEEQSTAALTLYTKKQFFQGIHEVVESSNEDNFQLLDIQTPSICDNQEILEERRLEMARLQLAYICAQHQLIHLKASNSSMKSSIKWAEESLHSLTSKAVDKENLDAKISSLTSEIMKLEKEVTQIKDRSLPAVVRENAQLLNMPVVKGDFDLQIAKQDYYTARQELVLNQLIKQKASFELLQLSYEIELRKHRDIYRQLENLVQELSQSNMMLYKQLEMLTDPSVSQQINPRNTIDTKDYSTHRLYQVLEGENKKKELFLTHGNLEEVAEKLKQNISLVQDQLAVSAQEHSFFLSKRNKDVDMLCDTLYQGGNQLLLSDQELTEQFHKVESQLNKLNHLLTDILADVKTKRKTLANNKLHQMEREFYVYFLKDEDYLKDIVENLETQSKIKAVSLED
notes: HAUS3, human; 603; also called H3; source: High5 insect cells, co-infected with baculoviruses; purified as part of the augmin octamer (StrepII-Trap, Superose 6)

Assays:
[1] = target: T1, HAUS6 N-terminal region (a.a. 1–432); assay: cross-linking; purified augmin^ΔH6C with DSSO at 250:1, 500:1, 750:1 and 1000:1 molar ratio, 1 h on ice; trypsin in gel or in solution, LC-MS/MS, MetaMorpheus, 1% FDR; details: both partners purified
[2] = target: T2, HAUS5; assay: as above; details: both partners purified

Row | Binder | binding result [1] | binding result [2]
1 | B1 | binds | –
2 | B2 | – | binds
